# T1: PTP1B under reducing condition (purified recombinant 37 kDa wild type PTP1B, with TCEP) (human, UniProt P18031 1-321)
# T1 construct: Same protein as m1 but kept reduced (2 mM TCEP); also called reduced, active PTP1B
# T1 sequence: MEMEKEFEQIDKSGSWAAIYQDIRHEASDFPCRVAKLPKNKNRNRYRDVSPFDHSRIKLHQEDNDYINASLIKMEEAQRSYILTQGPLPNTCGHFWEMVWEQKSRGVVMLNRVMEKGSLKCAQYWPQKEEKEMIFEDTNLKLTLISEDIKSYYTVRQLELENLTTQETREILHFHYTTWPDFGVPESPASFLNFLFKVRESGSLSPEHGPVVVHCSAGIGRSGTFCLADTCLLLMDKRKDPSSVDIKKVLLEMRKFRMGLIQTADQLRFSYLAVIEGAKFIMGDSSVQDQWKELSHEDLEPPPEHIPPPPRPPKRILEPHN
# T2: PTP1B-OX (purified recombinant 37 kDa PTP1B, reversibly oxidized with H2O2) (human, UniProt P18031 1-321, catalytic Cys 215 reversibly oxidized by H2O2 (cyclic sulphenamide form))
# T2 construct: also called PTP1B-SN
# T2 sequence: T1 sequence
# B1: scFv21 (scFv)
# scFv: LTQPSSVSANPGGTVKITCSGSSGSYYGWYQQKSPGSAPVTVIYDNDKRPSDVPSRFSGSKSGPTATLTITGVQAEDEAVYFCGSRDNSYVGIFGAGTTLTVLGQSSRSSAVTLDESGGGLQTPGGALSLVCKASGFTFSSYDMFWVRQAPGKGLEFVAQINSAGSYTNYGSAVKGRATISRDDGQSTVRLQLNNLRAEDTGIYFCAKSASGYYYSGSDAGDIDAWGHGTEVIVSSTSGQAGQHHHHHHGAYPYDVPDYAS
# B2: scFv20 (scFv)
# scFv: LTQPSSVSANLGGIVEITCSGSSGSYGWYQQKSPGSAPVTVIYYNDKRPSNIPSRFSGSGSGSTNTLTIAGVRAEDEAVYYCGNEDSSGAAFGAGTTLTVLGQSSRSSAVTLDESGGGLQTPGGGLSLVCKASGFTFSDYDMFWVRQAPSKGLEFVAAITSSGTGTKYGAAVKGRATISKDNGQRTVRLQLNSLGAEDTGTYYCARSDADSTTWSAGEIDAWGHGTEVIVSSTSGQAGQHHHHHHGAYPYDVPDYAS
# How the values were obtained:
# [1] = target: T1, PTP1B under reducing condition …; experiment: in vitro Ni-NTA pull-down of purified scFv with purified PTP1B in 2 mM TCEP, immunoblot
# Protocol: (§1) In the in vitro binding assay, purified PTP was reversibly oxidized with […] followed by a quick buffer exchange to remove H_2O_2 (FIG. 8). Purified scFv was incubated in molar excess with PTP1B-OX or with PTP under reducing condition (with 2 mM TCEP) in binding buffer (20 mM HEPES, pH 7.4, 300 mM NaCl, 0.05% BSA, 0.05% Tween-20 and 10 mM imidazole) for 2 hours at 4° C. Ni-NTA agarose was added and incubated for one hour at 4° C. Protein complex bound to Ni-NTA agarose beads was pulled down and washed (three times, 5 minutes each, at 4° C.) with binding buffer containing 20 mM imidazole to reduce non-specific binding to the beads. The protein complex was eluted from the Ni-NTA agarose beads with 500 mM imidazole (in binding buffer, pH 7.4) for 15 minutes at 4° C. with gentle shaking. The complex was separated by SDS-PAGE and PTP1B was detected with anti-PTP1B antibody (FG6) and scFv was detected with anti-HA antibody [anti-HA (3F10)-HRP, Roche] by immunoblotting. Eight different scFvs (scFvs 20, 21, 24, 28, 45, 48, 57, and 105), expressed and purified from bacterial cultures were tested by this in vitro binding experiment.
# [2] = target: T2, PTP1B-OX (purified recombinant 37 kDa …); experiment: in vitro Ni-NTA pull-down of purified scFv with purified PTP1B-OX, immunoblot
# Protocol: as §1
Binder,binding result [1],binding result [2]
B1,no binding,no binding
B2,no binding,no binding
